Measured values: patent US10260068B2, “Prophylactic agent and therapeutic agent for fibrodysplasia ossificans progressiva” (Sumitomo Dainippon Pharma Co., Ltd., priority 2014, dated 2019)

Assays:
[1] = test system: FOP patient derived cells; assay: Differentiation to chondrocytes (Alcian blue, sulfated glycosaminoglycan assay) of FOP patient derived cells; assay type: cell-based, human
Procedure: (§1) Mesenchymal stem cell-like cells from a patient iPS cell line and a gene-corrected iPS cell clone were each prepared by the same method as Example 1. The mesenchymal stem cell-like cells were cultured for 6 days under the medium conditions used in the method of Umeda et al. (Sci. Rep., 2012, 2, 455), for differentiation to chondrocytes. During differentiation, 100 ng/mL of human activin A, 100 ng/mL of human BMP-7 or 1 ng/mL of human TGF-β3 (product of R&D Systems, Inc., trade name: Recombinant Human TGF-beta 3) was added and the effect of each factor on differentiation to chondrocytes was examined. The extent of differentiation to chondrocytes was measured with Alcian blue dye and a sulfated glycosaminoglycan assay kit (product of Biocolor, Ltd., trade name: Blyscan Glycosaminoglycan Assay Kit). In FIG. 4, the bar graph indicates the mean values for each treated group, and the error bars represent S.D.

[2] = test system: gene-corrected clone derived cells; assay: Differentiation to chondrocytes (sulfated glycosaminoglycan assay) of gene-corrected clone derived cells; assay type: cell-based, human; details: 100 ng/mL BMP-7 or 1 ng/mL TGF-β3, 6 days, vs untreated group
Procedure: as §1

[3] = test system: FOP patient derived cells; assay: Evaluation of binding inhibitors: chondrocyte differentiation of FOP patient derived cells in copresence of human activin A; assay type: cell-based; details: copresence of 30 ng/mL human activin A, 6 days; vs activin-treated group
Procedure: Patient iPS cell line-derived mesenchymal stem cell-like cells were prepared by the same method as Example 1. The mesenchymal stem cell-like cells were cultured for 6 days by the same method as Example 3, for differentiation to chondrocytes. The effect of each factor on differentiation to chondrocytes was examined, with neutralizing antibody for human activin A (product of R&D Systems, Inc., trade name: Human/Mouse/Rat Activin A βA subunit Antibody), follistatin (product of R&D Systems, Inc., trade name: Recombinant Human Follistatin 315 as 30-344), follistatin-like 3 (product of R&D Systems, Inc., trade name: Recombinant Human Follistatin-related Gene Protein/FLRG), ACVR2A-Fc chimeric protein (product of R&D Systems, Inc., trade name: Recombinant Human Activin RIIA Fc Chimera (CHO)), or ACVR2B-Fc chimeric protein (product of R&D Systems, Inc., trade name: Recombinant Human Activin RIIB Fc Chimera), in the copresence of 30 ng/mL of human activin A. The ACVR2A-Fc chimeric protein is a fusion protein in which a polypeptide fragment having the amino acid sequence of positions 20 to 134 of the amino acid sequence listed as SEQ ID NO: 12, and the Fc region of the human-derived antibody, are bonded via a linker sequence (Ile-Glu-Gly-Arg-Met-Asp). The ACVR2B-Fc chimeric protein is a fusion protein in which a polypeptide fragment having the amino acid sequence of positions 19 to 134 of the amino acid sequence listed as SEQ ID NO: 14, and the Fc region of the human-derived antibody, are bonded via a linker sequence (Ile-Glu-Gly-Arg-Met-Asp). The extent of differentiation to chondrocytes was evaluated by Alcian blue staining and sulfated glycosaminoglycan assay, similar to Example 3. In FIG. 6(B), the bar graph indicates the mean values for each treated group, and the error bars represent S.D.

| Molecule | difference in cartilage induction between FOP patient derived cells and gene-corrected clone derived cells ([1]; 1 ng/mL TGF-β3, 6 days) | cartilage induction effect compared to the effect exhibited by activin A on FOP patient derived cells ([1]; 100 ng/mL BMP-7 or 1 ng/mL TGF-β3, 6 days) | cartilage induction (sulfated glycosaminoglycan assay) ([1]; FOP patient derived cells, 100 ng/mL activin A, 100 ng/mL BMP-7 or 1 ng/mL TGF-β3, 6 days, vs untreated group) | cartilage induction (sulfated glycosaminoglycan assay) [2] | differentiation of FOP patient derived cells to chondrocytes (Alcian blue staining, sulfated glycosaminoglycan assay) [3] |
| --- | --- | --- | --- | --- | --- |
| TGF-β3: Recombinant Human TGF-beta 3 (R&D Systems) (protein, UniProt P10600 301-412, looked up) Transforming growth factor …: ALDTNYCFRNLEENCCVRPLYIDFRQDLGWKWVHEPKGYYANFCSGPCPYLRSADTTHSTVLGLYNTLNPEASASPCCVPQDLEPLTILYYVGRTPKVEQLSNMVVKSCKCS | no significant difference | weaker | significantly enhanced | significantly enhanced |  |
| ACVR2B-Fc chimeric protein: Fusion of positions 19 to 134 of SEQ ID NO: 14 with human antibody Fc region via linker Ile-Glu-Gly-Arg-Met-Asp (protein, left off: a dimerising Fc or GST) SGRGEAETRECIYYNANWELERTNQSGLERCEGEQDKRLHCYASWRNSSGTIELVKKGCWLDDFNCYDRQECVATEENPQVYFCCCEGNFCNERFTHLPEAGGPEVTYEPPPTAPTIEGRMD |  |  |  |  | inhibited |
| follistatin-like 3: Recombinant Human Follistatin-related Gene Protein/FLRG (R&D Systems) (protein, listed as Homo sapiens) MRPGAPGPLWPLPWGALAWAVGFVSSMGSGNPAPGGVCWLQQGQEATCSLVLQTDVTRAECCASGNIDTAWSNLTHPGNKINLLGFLGLVHCLPCKDSCDGVECGPGKACRMLGGRPRCECAPDCSGLPARLQVCGSDGATYRDECELRAARCRGHPDLSVMYRGRCRKSCEHVVCPRPQSCVVDQTGSAHCVVCRAAPCPVPSSPGQELCGNNNVTYISSCHMRQATCFLGRSIGVRHAGSCAGTPEEPPGGESAEEEENFV |  |  |  |  | inhibited |
| follistatin: Recombinant Human Follistatin 315 (R&D Systems) (protein) GNCWLRQAKNGRCQVLYKTELSKEECCSTGRLSTSWTEEDVNDNTLFKWMIFNGGAPNCIPCKETCENVDCGPGKKCRMNKKNKPRCVCAPDCSNITWKGPVCGLDGKTYRNECALLKARCKEQPELEVQYQGRCKKTCRDVFCPGSSTCVVDQTNNAYCVTCNRICPEPASSEQYLCGNDGVTYSSACHLRKATCLLGRSIGLAYEGKCIKAKSCEDIQCTGGKKCLWDFKVGRGRCSLCDELCPDSKSDEPVCASDNATYASECAMKEAACSSGVLLEVKHSGSCNSISEDTEEEEEDEDQDYSFPISSILEW |  |  |  |  | inhibited |
